This data set can be described thus: immunoblot of steady-state levels, CpA cells. The settings on record: glycan lost; control: wild-type Iso1. (In western blotting, separated proteins are transferred to a membrane and probed.)

B1: RNF128 Iso1 (GRAIL): N48A (protein)
parent chain: MGPPPGAGVSCRGGCGFSRLLAWCFLLALSPQAPGSRGAEAVWTAYLNVSWRVPHTGVNRTVWELSEEGVYGQDSPLEPVAGVLVPPDGPGALNACNPHTNFTVPTVWGSTVQVSWLALIQRGGGCTFADKIHLAYERGASGAVIFNFPGTRNEVIPMSHPGAVDIVAIMIGNLKGTKILQSIQRGIQVTMVIEVGKKHGPWVNHYSIFFVSVSFFIITAATVGYFIFYSARRLRNARAQSRKQRQLKADAKKAIGRLQLRTLKQGDKEIGPDGDSCAVCIELYKPNDLVRILTCNHIFHKTCVDPWLLEHRTCPMCKCDILKALGIEVDVEDGSVSLQVPVSNEISNSASSHEEDNRSETASSGYASVQGTDEPPLEEHVQSTNESLQLVNHEANSVAVDVIPHVDNPTFEEDETPNQETAVREIKS
Regarding B1, the expression_or_secretion entry is on record as “decreases”.

B2: RNF128 Iso1 (GRAIL): 3NA (protein)
parent chain: MGPPPGAGVSCRGGCGFSRLLAWCFLLALSPQAPGSRGAEAVWTAYLNVSWRVPHTGVNRTVWELSEEGVYGQDSPLEPVAGVLVPPDGPGALNACNPHTNFTVPTVWGSTVQVSWLALIQRGGGCTFADKIHLAYERGASGAVIFNFPGTRNEVIPMSHPGAVDIVAIMIGNLKGTKILQSIQRGIQVTMVIEVGKKHGPWVNHYSIFFVSVSFFIITAATVGYFIFYSARRLRNARAQSRKQRQLKADAKKAIGRLQLRTLKQGDKEIGPDGDSCAVCIELYKPNDLVRILTCNHIFHKTCVDPWLLEHRTCPMCKCDILKALGIEVDVEDGSVSLQVPVSNEISNSASSHEEDNRSETASSGYASVQGTDEPPLEEHVQSTNESLQLVNHEANSVAVDVIPHVDNPTFEEDETPNQETAVREIKS
As for B2, the expression_or_secretion result is on record as “decreases”.

B3: RNF128 Iso1 (GRAIL): N59A (protein)
parent chain: MGPPPGAGVSCRGGCGFSRLLAWCFLLALSPQAPGSRGAEAVWTAYLNVSWRVPHTGVNRTVWELSEEGVYGQDSPLEPVAGVLVPPDGPGALNACNPHTNFTVPTVWGSTVQVSWLALIQRGGGCTFADKIHLAYERGASGAVIFNFPGTRNEVIPMSHPGAVDIVAIMIGNLKGTKILQSIQRGIQVTMVIEVGKKHGPWVNHYSIFFVSVSFFIITAATVGYFIFYSARRLRNARAQSRKQRQLKADAKKAIGRLQLRTLKQGDKEIGPDGDSCAVCIELYKPNDLVRILTCNHIFHKTCVDPWLLEHRTCPMCKCDILKALGIEVDVEDGSVSLQVPVSNEISNSASSHEEDNRSETASSGYASVQGTDEPPLEEHVQSTNESLQLVNHEANSVAVDVIPHVDNPTFEEDETPNQETAVREIKS
Regarding B3, the expression_or_secretion result is given as “decreases”.

B4: RNF128 Iso1 (GRAIL): N101A (protein)
parent chain: MGPPPGAGVSCRGGCGFSRLLAWCFLLALSPQAPGSRGAEAVWTAYLNVSWRVPHTGVNRTVWELSEEGVYGQDSPLEPVAGVLVPPDGPGALNACNPHTNFTVPTVWGSTVQVSWLALIQRGGGCTFADKIHLAYERGASGAVIFNFPGTRNEVIPMSHPGAVDIVAIMIGNLKGTKILQSIQRGIQVTMVIEVGKKHGPWVNHYSIFFVSVSFFIITAATVGYFIFYSARRLRNARAQSRKQRQLKADAKKAIGRLQLRTLKQGDKEIGPDGDSCAVCIELYKPNDLVRILTCNHIFHKTCVDPWLLEHRTCPMCKCDILKALGIEVDVEDGSVSLQVPVSNEISNSASSHEEDNRSETASSGYASVQGTDEPPLEEHVQSTNESLQLVNHEANSVAVDVIPHVDNPTFEEDETPNQETAVREIKS
For B4, the expression_or_secretion result was “decreases”.

The values are drawn from paper PMC8593620.
